This note sets out measurements from patent US20260209318A1 (NATIONAL UNIVERSITY OF SINGAPORE, published 2026).

This assay concerns the target SARS-CoV-2 spike protein RBD (SARS-CoV-2, UniProt P0DTC2 319-541). Nature of the assay: multiplex sVNT, RBD-coated beads, PE-hACE2 as competitor.

B1: SS6V11-E7 (antibody, V domains shown)
VH: QVQLQESGPGLVKPSETLSLTCTVSGGFIGPHYWSWVRQPPGKGLEWIGYIYISGSTNYNPSLKSRLTISVDMSKSQFSLTLSSATAADTAVYYCARGGGYLETGPFEYWGQGTLVTVSS
VL: DIVMTQSPLSLPVTPGEPASISCRSSQSLLQNNGYNYLAWYLQKPGQSPQLLIYLSSTRASGVPDRFSGSGSGTDFTLKISRVEAEDVGVYYCMQSLQIPGTFGQGTRLEIK
On to B1, for which the binding result is “binds”.
